Laboratory results reported in US6632621B1, “G protein-coupled receptor-like receptors and modulators thereof” (priority 1999, dated 2003).
Where a SMILES comes first, the peptide text is derived from it. Where no end group is shown, it is not given here. [ ]: non-standard residue; d: D form. Tyr(3-I) = N[C@@H](Cc1ccc(O)c(I)c1)C(=O)O; Nle = CCCC[C@H](N)C(=O)O

T1: CEGPCR7 receptor (Caenorhabditis elegans, UniProt Q18534)
T1 construct: Each of the 22 putative GPCR-like receptor clones appeared to contain a full-length coding region; expressed in transfected cells; host or cells: CHO-K1, transient, pCR3.1 clone, 37 to 28 C temperature shift
T1 sequence (Q18534 1-457): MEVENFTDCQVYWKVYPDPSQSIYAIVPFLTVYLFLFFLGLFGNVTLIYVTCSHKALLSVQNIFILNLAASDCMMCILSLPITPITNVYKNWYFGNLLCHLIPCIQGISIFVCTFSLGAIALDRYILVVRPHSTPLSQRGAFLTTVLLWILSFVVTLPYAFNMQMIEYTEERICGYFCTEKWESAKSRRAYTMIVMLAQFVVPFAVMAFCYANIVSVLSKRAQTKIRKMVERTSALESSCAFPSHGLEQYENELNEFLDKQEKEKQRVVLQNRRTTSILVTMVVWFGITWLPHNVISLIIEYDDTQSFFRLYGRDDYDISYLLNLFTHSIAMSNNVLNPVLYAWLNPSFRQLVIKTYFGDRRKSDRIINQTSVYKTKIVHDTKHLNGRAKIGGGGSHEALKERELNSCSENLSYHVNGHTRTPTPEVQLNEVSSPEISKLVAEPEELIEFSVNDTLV

T2: CEGPCR5 (Caenorhabditis elegans, UniProt Q18179)
T2 sequence (Q18179 1-402): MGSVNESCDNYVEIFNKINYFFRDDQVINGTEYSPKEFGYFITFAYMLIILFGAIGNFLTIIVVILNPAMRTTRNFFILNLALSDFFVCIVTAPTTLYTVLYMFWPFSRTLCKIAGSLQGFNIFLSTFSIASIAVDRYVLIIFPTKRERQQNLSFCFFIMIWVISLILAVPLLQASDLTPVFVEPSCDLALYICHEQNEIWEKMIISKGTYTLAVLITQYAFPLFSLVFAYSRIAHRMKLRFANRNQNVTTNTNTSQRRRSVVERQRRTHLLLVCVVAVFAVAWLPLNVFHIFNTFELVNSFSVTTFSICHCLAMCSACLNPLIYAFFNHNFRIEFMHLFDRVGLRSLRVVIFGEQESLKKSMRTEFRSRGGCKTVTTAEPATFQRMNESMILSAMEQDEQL

T3: CEGPCR4 (C. elegans)
T3 construct: Expressed in CHO cells; also called CEGPCR4 receptor; CEGPCR4/CHO membranes
T3 chain: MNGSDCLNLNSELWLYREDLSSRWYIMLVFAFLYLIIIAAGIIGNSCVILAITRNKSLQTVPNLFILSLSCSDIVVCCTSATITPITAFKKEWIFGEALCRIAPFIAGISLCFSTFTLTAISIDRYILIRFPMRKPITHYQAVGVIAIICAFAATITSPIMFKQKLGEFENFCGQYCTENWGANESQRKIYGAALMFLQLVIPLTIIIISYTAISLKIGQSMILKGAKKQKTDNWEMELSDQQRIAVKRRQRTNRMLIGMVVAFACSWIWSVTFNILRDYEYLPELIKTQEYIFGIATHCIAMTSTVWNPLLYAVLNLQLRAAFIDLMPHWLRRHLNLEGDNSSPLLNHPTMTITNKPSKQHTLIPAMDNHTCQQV


What was measured:
CEGPCR7 receptor = biological target: T1, CEGPCR7 receptor; test: [35S]GTPγS binding assay, membranes of CHO cells transfected with CEGPCR7; type: biochemical, C. elegans
Method: (§1) Recombinant pCR3.1 clones encoding invertebrate GPCR-like receptors were transformed into wild-type CHO-K1 cells and functional expression was achieved using a temperature-shift incubation protocol. The CHO-K1 cells were cultured at 37° C. in a humidified atmosphere of 5% CO2 in air in DMEM medium supplemented with 10% heat-inactivated fetal bovine serum (i.e., FBS), 10 μg/ml gentamicin, and 0.1 mM nonessential amino acids to give complete DMEM medium. Additionally, for incubations at temperatures lower than 37° C., the medium was fortified with 10 mM HEPES (pH 7.4). Cells were transfected with recombinant pCR3.1 clones containing GPCR-like receptor DNAs, using LipofectAMINE PLUS™, essentially according to the manufacturer's instructions. […] In separate plastic tubes, PLUS (20 μl/plate; Life Technologies) was added to 0.75 ml/plate of recombinant plasmid DNA in OptiMEM (5 μg/plate; Gibco/BRL—Life Technologies), mixed and incubated at room temperature for 15 minutes. Separately, LipofectAMINE (30 μl/plate) was mixed with 0.75 ml OptiMEM and added to the pre-complexed DNA/PLUS mixture and incubated at room temperature for 15 minutes. The culture medium was then replaced with serum-free transfection medium (DMEM, 5 ml/plate). The DNA-PLUS-LipofectAMINE complex was then added to the plates (1.5 ml/plate) and mixed gently into the medium, followed by a 3 hour incubation at 37° C. in 5% CO2. At this time, the medium was supplemented with complete DMEM medium containing 20% FBS (6.5 ml/plate) and incubation was continued at 37° C. in 5% CO2. After a total of 24 hours at 37° C. in 5% CO2, the medium was replaced with complete DMEM medium fortified with 10 mM HEPES (10 ml/plate) and the cells were moved to an incubator maintained at 28-30° C. in a humidified atmosphere of 5% CO2 in air. The incubation continued for an additional 24 hours, typically at the lower temperature indicated above. A plasmid encoding Green Fluorescent Protein (i.e., GFP, 4 μg/plate) was used for transient GFP expression in CHO-K1 cells to estimate the transfection yields under the same conditions as used for GPCR-like receptor polynucleotides.
(§2) To assess expression, membranes were prepared from transfected CHO-K1 cells. Transfected cells were washed once with ice-cold Dulbecco's phosphate-buffered saline (i.e., PBS), 5 ml per 10 cm plate, and the cells were scraped into 5 ml of the same buffer. Cell suspensions from multiple plates were combined and centrifuged at 500×g for 10 minutes at 4° C. The cell pellet was reconstituted in ice-cold TEE (25 mM Tris, pH 7.4, 5 mM EGTA, 5 mM EDTA). Convenient aliquots were snap-frozen in liquid nitrogen and stored at −70° C. After thawing, the cells were homogenized and centrifuged at 500×g for 5 minutes at 4° C. to pellet nuclei and unbroken cells. Tile supernatant was centrifuged at 47,000×g for 30 minutes at 4° C. The membrane pellet was washed once with TEE, resuspended in 20 mM HEPES, pH 7.4, 100 mM NaCl, 10 mM MgCl2, 1 mM EDTA (assay buffer), distributed into aliquots of 0.5-1.0 ml, and frozen in liquid nitrogen. Membrane aliquots were stored at −70° C. Membrane protein concentration was determined using the BCA Protein Assay Reagent from Pierce (Rockford, Ill.), with bovine serum albumin (i.e., BSA) as a standard.
Aliquots of cell membranes prepared as described above and stored at −70° C. were thawed, homogenized, and diluted into buffer containing 20 mM HEPES, pH 7.4, 10 mM MgCl2, 1 mM EDTA, and 100 mM NaCl at a concentration of 10-50 μg/ml.

CEGPCR5 = biological target: T2, CEGPCR5; test: [35S]GTPγS binding assay, CEGPCR5 expressed in CHO cells; type: biochemical, C. elegans; settings: for EC50: EC50 range
Method: as §1, §2
Aliquots of cell membranes prepared as described above and stored at −70° C. were thawed, homogenized, and diluted into buffer containing 20 mM HEPES, pH 7.4, 10 mM MgCl2, 1 mM EDTA, and 100 mM NaCl at a concentration of 10-50 μg/ml. Reaction mixtures were prepared in 96-well polypropylene plate, Nunc. Twenty microliters of a 10× putative modulator compound (including but not limited to potential peptide ligands) solution or a water control (20 μl), 18.2 µM GDP (0.11 ml, 10 μM final concentration), and a membrane preparation were mixed and placed on ice. The modulator/ligand-GDP-membrane mixtures were incubated for 20 minutes at room temperature on a shaking platform and then placed on ice.

CEGPCR19.2 = CEGPCR19.2 (Caenorhabditis elegans, UniProt H2KZY4); test: calcium mobilization assay (FLIPR), transiently transfected CHO cells, CEGPCR19.2; type: cell-based, C. elegans; settings: Table 13; peptides at 10 μM
Method: Changes in intracellular calcium levels are another recognized indicator of […] receptor activity, and such assays can be employed to assay for modulators of GPCR-like receptor activity. For example, CHO cells stably transfected with a GPCR-like receptor expression construct are plated at a density of 4×10^4 cells/well in Packard black-walled 96-well plates specially designed to isolate fluorescent signals to individual wells. The cells are incubated for 60 minutes at 37° C. in modified Dulbecco's PBS (D-PBS), containing 36 mg/L pyruvate and 1 g/L glucose with the addition of 2.5 mM probenecid (Sigma Chemical Co.) and one of four calcium indicator dyes (Fluo3™ AM, Fluo4™ AM, Calcium Green™-1 AM, or Oregon Green™ 488 BAPTA-1 AM) at a concentration of 4 μM. Plates are washed once with modified D-PBS […] 1% fetal bovine serum and incubated for 10 minutes at 37° C. to remove residual dye from the cellular membrane. In addition, a series of washes with modified D-PBS is performed immediately prior to activation of the calcium response.
Calcium response is initiated by the addition of one or more candidate receptor agonist compounds, or a positive control such as a calcium ionophore A23187 (10 μM), or ATP (4 μM). Fluorescence is measured by Molecular Device's FLIPR with an argon laser, excitation at 488 nm. […] Basal fluorescence of cells was measured for 20 seconds prior to addition of agonist, ATP, or A23187, and was subtracted from the response signal. The calcium signal is measured for approximately 200 seconds, taking readings every two seconds. […]
This appears especially useful for the assessment of possible activation of orphan GPCRs (i.e., GPCRs having unknown functions and unknown signaling pathways). […] Because the GTPγS assay is known to poorly recognize GPCRs coupled to the Gq class of G-proteins, a Ca^+2 mobilization assay, based on a FLIPR readout, was used as well to evaluate putative Gq-couplcd orphan GPCRs transiently transfected into CHO cells. […] Without the temperature downshift, expression of functional receptor could not be detected. […]

CEGPCR4 = biological target: T3, CEGPCR4; test: competition binding assay, CEGPCR4/CHO membranes; IC50 range printed once for block r19-r25

Chain of CEGPCR19.2 (H2KZY4 entry or part of it): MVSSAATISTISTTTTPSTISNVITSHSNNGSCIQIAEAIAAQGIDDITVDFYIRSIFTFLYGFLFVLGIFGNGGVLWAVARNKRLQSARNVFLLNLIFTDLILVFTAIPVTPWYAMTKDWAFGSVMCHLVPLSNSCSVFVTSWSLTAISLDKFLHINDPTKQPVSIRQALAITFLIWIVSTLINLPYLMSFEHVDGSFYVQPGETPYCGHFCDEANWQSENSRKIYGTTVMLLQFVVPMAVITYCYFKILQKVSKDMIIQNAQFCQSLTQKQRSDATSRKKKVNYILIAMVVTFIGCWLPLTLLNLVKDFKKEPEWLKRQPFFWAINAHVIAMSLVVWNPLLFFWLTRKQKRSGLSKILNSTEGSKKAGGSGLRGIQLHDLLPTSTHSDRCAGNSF

| Molecule | activity at single concentration (CEGPCR19.2) | binding result (CEGPCR4) | other results |
| --- | --- | --- | --- |
| CC(C)C[C@H](NC(=O)CNC(=O)[C@@H](N)Cc1ccc(O)c(I)c1)C(=O)NCC(=O)N1CCC[C@H]1C(=O)N[C@@H](CCCNC(=N)N)C(=O)N1CCC[C@H]1C(=O)N[C@@H](CC(C)C)C(=O)N[C@@H](CCCNC(=N)N)C(=O)N[C@@H](Cc1ccccc1)C(N)=O [[I]Y^0-GLGPRPLRF-NH2] (H-[Tyr(3-I)]GLGPRPLRF-NH2) | – | – | EC50 (CEGPCR7 receptor; EC50, single values): 237 nM; EC50 (CEGPCR7 receptor; EC50 range, Table 7, one range for the group of peptides): 200 to 250 nM; EC50 (CEGPCR5): 176 to 273 nM; EC50 (CEGPCR5; Table 9, one range for the group of peptides): 80 to 800 nM; less potent than AF9 (CEGPCR5; ratio of potency): about 200 fold |
| LQPNFLRF-NH2 | peptides active | – | – |
| SQPNFLRF-NH2 | peptides active | – | – |
| KPNFIRF-NH2 | peptides active | – | – |
| GNSFLRF-NH2 (also called GNSFLRFamide) [GNSFLRF-NH2] | – | binds | – |
| KPNFLRF-NH2 (flp1) [KPNFLRF-NH2] | – | binds | – |
| IL[Nle]RF-NH2 (N-terminus assumed; SMILES CCCC[C@H](NC(=O)[C@H](CC(C)C)NC(=O)[C@@H](N)[C@@H](C)CC)C(=O)N[C@@H](CCCNC(=N)N)C(=O)N[C@@H](Cc1ccccc1)C(N)=O, synthetic) [ILNleRF-NH2] | – | binds | – |
